Laboratory results published in patent publication US20240166725A1 (BEIJING WISDOMAB BIOTECHNOLOGY, published 2024).
Positions count from the first letter of the chain named. Where two headings read alike, the source gives them in different places.

B1: single chain fragment variable S7A10 (phage-displayed) (scFv)
scFv: QVQLKESGPGPVKPSQSLSLTCSVTGYSITSGNYWNWVRQFPGNKLEWMAYISYDGSTYYNPSLKNRISITRDTSKNQFFLKLNSVTTEDTATYYCAEGYYGYWFAYWGQGTLVTVSAGGGGSGGGGSGGGGSENVLTQSPAILSASPGEKVTMTCRASSSVSYMHWYQQKPGSSPKPWIYATSNLASGVPARFSGSGSGTSYSLTISRVEAEDAATYYCQQWSSNPFTFGSGTKLEIK
notes: also called clone S7A10; phage S7A10
B2: single chain fragment variable S8E1 (phage-displayed) (scFv)
scFv: EVKLVESGPGLVKPSQSLSLTCSVTGYSITSGYYWNWIRQFPGNKLEWMGYISYDGSNNYNTSLKNRISITRDTSKNQFFLKLNSVTTEDTATYYCAREDVNYPPYALDYWGQGTSVTVSSGGGGSGGGGSGGGGSSIVMTQTPLSLPVSLGDQASISCRSSQSLVHSNGNTYLHWYLQKPGQSPKLLIYKVSNRFSGVPDRFSGSGSGTDFTLKISRVEAEDLGVYFCSQSTHVPWTFGGGTKLEMK
notes: also called clone S8E1; phage S8E1
B3: S8E1-IgG1 (antibody, V domains shown)
VH: EVKLVESGPGLVKPSQSLSLTCSVTGYSITSGYYWNWIRQFPGNKLEWMGYISYDGSNNYNTSLKNRISITRDTSKNQFFLKLNSVTTEDTATYYCAREDVNYPPYALDYWGQGTSVTVSS
VL: SIVMTQTPLSLPVSLGDQASISCRSSQSLVHSNGNTYLHWYLQKPGQSPKLLIYKVSNRFSGVPDRFSGSGSGTDFTLKISRVEAEDLGVYFCSQSTHVPWTFGGGTKLEMKR
notes: also called monoclonal antibody S8E1
B4: single chain fragment variable S8B8 (phage-displayed) (scFv)
scFv: EVKLVESGGGLVQPGGSLKLSCAASGFTFSSYTMSWVRQTPEKRLEWVAFISNGGDNNYYADTVKGRFIISRDNAKNTLYLQMSSLKSEDTAMYYCARHNGNWGFAYWGQGTLVTVSAGGGGSGGGGSGGGGSQNVLTQSPTTMAASPGEKITITCSASSSISSNYLHWYQQKPGFSPKLLIYRTSNLASGVPARFSGSGSGTSYSLTIGTMEAEDVATYYCQQGSSIPLTFGAGTKLEIK
notes: also called clone S8B8; phage S8B8
B5: S7A10-IgG1 (antibody, V domains shown)
VH: QVQLKESGPGPVKPSQSLSLTCSVTGYSITSGNYWNWVRQFPGNKLEWMAYISYDGSTYYNPSLKNRISITRDTSKNQFFLKLNSVTTEDTATYYCAEGYYGYWFAYWGQGTLVTVSA
VL: ENVLTQSPAILSASPGEKVTMTCRASSSVSYMHWYQQKPGSSPKPWIYATSNLASGVPARFSGSGSGTSYSLTISRVEAEDAATYYCQQWSSNPFTFGSGTKLEIKR
notes: also called monoclonal antibody S7A10
B6: S8B8-IgG1 (antibody, V domains shown)
VH: EVKLVESGGGLVQPGGSLKLSCAASGFTFSSYTMSWVRQTPEKRLEWVAFISNGGDNNYYADTVKGRFIISRDNAKNTLYLQMSSLKSEDTAMYYCARHNGNWGFAYWGQGTLVTVSA
VL: QNVLTQSPTTMAASPGEKITITCSASSSISSNYLHWYQQKPGFSPKLLIYRTSNLASGVPARFSGSGSGTSYSLTIGTMEAEDVATYYCQQGSSIPLTFGAGTKLEIKR
notes: also called monoclonal antibody S8B8
B7: H4H8-L13C7-IgG1 (antibody, V domains shown)
VH: EVQLVESGGGVVQPGRSLRLSCGASGFTFNTYAMHWVRQAPGKGMEWVAVISYGGGNRYYAASVKGRFTISRDNSKNTLFLQLNTLRPEDTAVYYCARARDNHYFFGMDVWGRGTTVTVSS
VL: DIQMTQSPSSVSASVGDRVTITCRASQGISSWLAWYQQKPGKAPKLLIYAASSLQSGVPSRFSGSGSGTDFTLTISSLQPEDFATYYCQQATYFPINFGGGTKVEIKR
B8: H4H8-L1B7-IgG1 (antibody, V domains shown)
VH: B7 VH
VL: B7 VL with T92N, Y93S, I96L, N97T
notes: also called H4H8-LIB7-IgG1; monoclonal antibody H4H8-L1B7
B9: H4H8-L14H8-IgG1 (antibody, V domains shown)
VH: B7 VH
VL: B7 VL with A91S, T92S, N97A
B10: H4H8-L13C1-IgG1 (antibody, V domains shown)
VH: B7 VH
VL: B7 VL with Q90E, A91G, T92F

Experiments:
[1] = target: T1, varicella-zoster virus recombinant protein gH-His/gL (varicella-zoster virus strain Oka, UniProt Q775J3 18-795; Q9J3N1 23-160); test: solid-phase phage display screening on gH-His/gL
T1 sequence (Q775J3 18-795, tags left off, chain 1 of 2): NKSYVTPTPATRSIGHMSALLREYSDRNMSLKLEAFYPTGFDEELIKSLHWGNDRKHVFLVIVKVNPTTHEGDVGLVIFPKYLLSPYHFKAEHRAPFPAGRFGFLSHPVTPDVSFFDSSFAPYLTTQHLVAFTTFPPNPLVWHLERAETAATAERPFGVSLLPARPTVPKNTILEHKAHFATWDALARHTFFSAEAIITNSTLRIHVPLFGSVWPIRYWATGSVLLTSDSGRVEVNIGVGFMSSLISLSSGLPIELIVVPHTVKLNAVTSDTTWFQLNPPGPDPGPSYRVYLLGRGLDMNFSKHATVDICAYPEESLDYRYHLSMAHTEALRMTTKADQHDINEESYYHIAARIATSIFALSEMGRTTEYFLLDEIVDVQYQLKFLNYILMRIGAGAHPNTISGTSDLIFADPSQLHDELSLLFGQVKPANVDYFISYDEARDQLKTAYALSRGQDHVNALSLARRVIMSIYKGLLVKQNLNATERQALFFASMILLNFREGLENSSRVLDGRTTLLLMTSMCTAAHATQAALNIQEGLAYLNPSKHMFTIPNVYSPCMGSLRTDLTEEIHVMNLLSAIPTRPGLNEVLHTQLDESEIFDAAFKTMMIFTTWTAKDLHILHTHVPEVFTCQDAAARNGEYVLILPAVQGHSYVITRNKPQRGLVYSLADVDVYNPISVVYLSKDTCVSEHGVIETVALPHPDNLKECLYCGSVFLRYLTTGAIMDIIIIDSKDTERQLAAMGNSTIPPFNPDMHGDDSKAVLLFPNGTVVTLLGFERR
T1 sequence (Q9J3N1 23-160 limits assumed, chain 2 of 2): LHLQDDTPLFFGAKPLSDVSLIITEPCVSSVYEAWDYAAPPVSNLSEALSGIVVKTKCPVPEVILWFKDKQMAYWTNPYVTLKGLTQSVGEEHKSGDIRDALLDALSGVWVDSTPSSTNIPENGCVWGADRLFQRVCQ

[2] = target: T2, gH/gL protein of varicella-zoster virus, native, on VZV (Oka) virions and VZV-infected MRC5 cells (varicella-zoster virus (Oka), UniProt Q775J3 18-841); test: cell-based or functional assay
T2 sequence (Q775J3 18-841): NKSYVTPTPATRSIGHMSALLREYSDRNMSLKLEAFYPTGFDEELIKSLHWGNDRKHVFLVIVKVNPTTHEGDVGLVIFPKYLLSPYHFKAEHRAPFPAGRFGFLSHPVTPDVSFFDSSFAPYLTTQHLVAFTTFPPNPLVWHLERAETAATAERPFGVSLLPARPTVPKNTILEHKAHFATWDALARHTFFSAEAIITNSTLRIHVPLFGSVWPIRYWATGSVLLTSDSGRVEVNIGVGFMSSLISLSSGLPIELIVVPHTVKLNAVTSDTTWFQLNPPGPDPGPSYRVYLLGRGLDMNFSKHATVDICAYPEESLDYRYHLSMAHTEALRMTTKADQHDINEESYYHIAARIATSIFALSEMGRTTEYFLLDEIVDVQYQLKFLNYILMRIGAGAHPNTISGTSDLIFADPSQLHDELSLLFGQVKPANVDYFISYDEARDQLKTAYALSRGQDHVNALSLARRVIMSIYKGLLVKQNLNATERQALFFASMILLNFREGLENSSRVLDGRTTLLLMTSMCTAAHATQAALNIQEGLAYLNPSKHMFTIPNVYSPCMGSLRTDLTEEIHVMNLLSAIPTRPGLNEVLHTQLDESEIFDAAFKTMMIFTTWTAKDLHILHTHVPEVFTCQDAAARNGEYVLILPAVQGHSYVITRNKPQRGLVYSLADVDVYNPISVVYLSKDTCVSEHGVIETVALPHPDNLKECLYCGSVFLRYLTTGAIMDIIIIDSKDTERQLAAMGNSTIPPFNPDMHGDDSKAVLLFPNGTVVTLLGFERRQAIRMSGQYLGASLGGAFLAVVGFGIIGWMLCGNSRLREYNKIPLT

[3] = target: T1, varicella-zoster virus recombinant …; test: competition ELISA on coated gH/gL; competitor: phage S8E1 (same clone), bound phage detected with HRP-anti-M13
[4] = target: T2, gH/gL protein of varicella-zoster …; test: cell-based or functional assay; remark: listed apart in the source
[5] = target: T1, varicella-zoster virus recombinant …; test: competition ELISA on coated gH/gL, scFv phage at fixed concentration, anti-M13 detection
[6] = target: T1, varicella-zoster virus recombinant …; test: competition ELISA on coated gH/gL; competitor: phage S7A10 (same clone), bound phage detected with HRP-anti-M13
[7] = target: T1, varicella-zoster virus recombinant …; test: competition ELISA on coated gH/gL; competitor: phage S8B8 (same clone), bound phage detected with HRP-anti-M13
[8] = target: T2, gH/gL protein of varicella-zoster …; test: cell-based or functional assay; remark: listed apart in the source
[9] = target: T2, gH/gL protein of varicella-zoster …; test: cell-based or functional assay; remark: listed apart in the source
[10] = target: T1, varicella-zoster virus recombinant …; test: competition ELISA on coated gH/gL; competitor: phage H4H8-L1B7 (same clone), bound phage detected with HRP-anti-M13

| Binder | PRNT50(µg/mL), plaque reduction, antibody added 24 h after infection of MRC5 cells (cell-to-cell transmission) [2] | PRNT50 (µg/mL), plaque reduction neutralisation of VZV (Oka) on MRC5 cells [4] | PRNT50(µg/mL), plaque reduction neutralisation of VZV on MRC5 cells [8] | PRNT50(µg/mL), plaque reduction, antibody added 24 h after infection of MRC5 cells (cell-to-cell transmission) [9] | further results |
| --- | --- | --- | --- | --- | --- |
| B1 | – | – | – | – | binding result [1]: binds |
| B2 | – | – | – | – | binding result [1]: binds |
| B3 | 2.82 µg/mL | 0.38 µg/mL | – | – | IC50 (read off the curve) [3]: ~0.5 nM |
| B4 | – | – | – | – | binding result [5]: binds |
| B5 | 0.93 µg/mL | 0.34 µg/mL | – | – | IC50 (read off the curve) [6]: ~2 nM |
| B6 | 3.21 µg/mL | 0.38 µg/mL | – | – | IC50 (read off the curve) [7]: ~0.3 nM |
| B7 | – | – | > 0.4 µg/mL | > 2 µg/mL | – |
| B8 | – | – | – | – | IC50 (read off the curve) [10]: ~2 nM |
| B9 | – | – | 0.016 µg/mL | 0.31 µg/mL | – |
| B10 | – | – | 0.016 µg/mL | 0.28 µg/mL | – |
